Measured values from paper doi:10.1101/2020.05.02.073981.

T1: His6-MmfR (Streptomyces coelicolor A3(2)) (UniProt Q7APH7)
T1 sequence: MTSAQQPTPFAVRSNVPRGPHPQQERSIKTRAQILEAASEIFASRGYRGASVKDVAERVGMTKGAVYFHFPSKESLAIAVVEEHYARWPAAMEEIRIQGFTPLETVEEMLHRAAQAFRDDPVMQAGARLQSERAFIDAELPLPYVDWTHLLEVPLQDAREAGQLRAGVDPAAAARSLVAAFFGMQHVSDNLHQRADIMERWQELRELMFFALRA

T2: MmfR Y144F Y144F (Streptomyces coelicolor A3(2)) (UniProt Q7APH7)
T2 sequence: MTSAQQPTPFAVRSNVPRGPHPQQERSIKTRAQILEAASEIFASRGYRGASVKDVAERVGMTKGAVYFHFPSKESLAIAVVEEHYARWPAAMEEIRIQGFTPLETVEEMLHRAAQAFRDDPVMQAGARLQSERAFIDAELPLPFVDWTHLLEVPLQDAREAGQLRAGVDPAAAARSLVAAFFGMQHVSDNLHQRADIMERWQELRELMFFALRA

T3: MmfR Y85F Y85F (Streptomyces coelicolor A3(2)) (UniProt Q7APH7)
T3 sequence: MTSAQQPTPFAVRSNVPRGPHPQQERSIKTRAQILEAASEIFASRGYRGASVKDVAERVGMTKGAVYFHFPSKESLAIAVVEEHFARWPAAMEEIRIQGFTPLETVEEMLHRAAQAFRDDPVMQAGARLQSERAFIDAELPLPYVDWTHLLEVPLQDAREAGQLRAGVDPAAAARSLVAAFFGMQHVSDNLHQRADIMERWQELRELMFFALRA

T4: MmfR Q130E Q130E (Streptomyces coelicolor A3(2)) (UniProt Q7APH7)
T4 sequence: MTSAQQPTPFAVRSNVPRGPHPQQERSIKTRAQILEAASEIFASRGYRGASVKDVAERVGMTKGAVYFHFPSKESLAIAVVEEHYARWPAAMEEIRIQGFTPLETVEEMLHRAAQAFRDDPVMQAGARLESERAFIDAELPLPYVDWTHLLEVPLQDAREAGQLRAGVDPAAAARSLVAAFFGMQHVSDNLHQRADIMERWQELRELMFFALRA

T5: His6-MmfR (Streptomyces coelicolor A3(2), UniProt Q7APH7 1-214)
T5 sequence: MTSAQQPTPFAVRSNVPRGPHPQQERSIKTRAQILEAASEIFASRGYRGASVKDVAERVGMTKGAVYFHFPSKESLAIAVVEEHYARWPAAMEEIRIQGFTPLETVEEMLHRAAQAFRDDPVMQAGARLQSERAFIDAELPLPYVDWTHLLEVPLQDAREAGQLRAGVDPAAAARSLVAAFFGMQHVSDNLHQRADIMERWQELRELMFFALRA


Tests used:
Assay in all cases: EMSA
[1] = molecular target: T1, His6-MmfR (Streptomyces coelicolor A3(2))
[2] = molecular target: T2, MmfR Y144F Y144F (Streptomyces coelicolor A3(2))
[3] = molecular target: T3, MmfR Y85F Y85F (Streptomyces coelicolor A3(2))
[4] = molecular target: T4, MmfR Q130E Q130E (Streptomyces coelicolor A3(2))
His6-MmfR = molecular target: T5, His6-MmfR

Molecule | binding [1] | binding result (His6-MmfR) | also measured
GGCGCCTCACAGTGTCAAACCTTCCCGAAGGTTTTTTATGACTCGTAACGGAGAGTTAAACCGGGGCTTACGAGAGCGGCGGGGCCTCGGTGTTTGGA (double strand) [mmyB-mmyY internal fragment, 98 bp] | binds | – | –
GGCTGCCTTCCTTCGTGTGTGCGGGCCCTGCGGGCGCCATGCTGGTGCGACCCGGGTCGGCACGGAAACCCATTGCATAATACCTTCCCGCAGGTATATTTCTCTCGGTCAGCTTACCGATCCCGGCTGTCTTGCAGCGCGGCAAGCCAGCCGGTGGTCCCGTACGAGGACACACCGGGAGATGTAGCGCCCCT (double strand) [mmfL-mmfR intergenic region, 194 bp] | binds | – | binding [2]: binds; binding [3]: binds; binding [4]: binds
GGCGCCTCACAGTGTCAAACCTTCCCGAAGGTTTTTTATGACTCGTAACGGAGAGTTAAACCGGGGCTTACGAGAGCGGCGGGGCCTCGGTGTTTGGACCGCAACTCGGCGGGGCCCTGGTGCTGAGAACACCACGTCTGAGGCCCCTAGCAGAAGTTCGCTCTGGCAGCCTTCGCACGACCCTGCCGATACTCGCCAGCGATCCGAACCACTCGCCGAAGGAGTTCACC (double strand) [mmyB-mmyY intergenic region, 230 bp] | binds | – | –
GGACCACCGGCTGGCTTGCCGCGCTGCAAGACAGCCGGGATCGGTAAGCTGACCGAGAGAAATATACCTGCGGGAAGGTATTATGCAATGGGTTTCCGTG (double strand) [mmfL-mmfR internal fragment, 100 bp] | binds | – | –
MARE1 hairpin (structured_DNA) DNA: GCAATATACCTGCGGGAAGGTATTATGCGAGGCATAATACCTTCCCGCAGGTATATTGC | – | binds | –
MARE2 hairpin (structured_DNA) DNA: GCAAAAAACCTTCGGGAAGGTTTGACGCGAGGCGTCAAACCTTCCCGAAGGTTTTTTGC | – | binds | –
